Here are results for 1 substance from paper PMC9197560.

The assay has as its target mature TGFβ1 produced in Nicotiana benthamiana (human). As to the kind of experiment: non-reducing Tricine-PAGE with Western blot; mature TGFβ1 released by HCl, 10% Tricine-PAGE under reducing or non-reducing conditions, anti-TGFβ1 blot. (Immunoblotting shows a protein as a band on a membrane.)

With “mature TGFβ1 produced in Nicotiana benthamiana (ligand)”, the stoichiometry N – broadly, a count of units in the complex or per binding partner – amounted to 2.
